In publication PMC9688318, “Construction of a Versatile, Programmable RNA-Binding Protein Using Designer PPR Proteins and Its Application for Splicing Control in Mammalian Cells”:

Key:
[1] = test system: PPR2.0t8 (synthetic designer (scaffold from Arabidopsis PPR consensus)); assay: EMSA; conditions: apparent; EMSA: 20 mM Tris-HCl pH 8.0, 150 mM NaCl, 0.5% NP-40, 1 mM DTT, 1 mM EDTA, 0.2 pmol biotin-RNA in 10 uL, 6% PAGE in 0.5x TBE; temperature not stated; RBP-ELISA …
[2] = test system: PPR2.0t8 (synthetic designer (scaffold from Arabidopsis PPR consensus)); assay: RBP-ELISA; conditions: cell lysate, EMSA: 20 mM Tris-HCl pH 8.0, 150 mM NaCl, 0.5% NP-40, 1 mM DTT, 1 mM EDTA, 0.2 pmol biotin-RNA in 10 uL, 6% PAGE in 0.5x TBE, temperature not stated
[3] = test system: PPR2.0t1 (synthetic designer (scaffold from Arabidopsis PPR consensus)); assay: EMSA; conditions: apparent; EMSA: 20 mM Tris-HCl pH 8.0, 150 mM NaCl, 0.5% NP-40, 1 mM DTT, 1 mM EDTA, 0.2 pmol biotin-RNA in 10 uL, 6% PAGE in 0.5x TBE; temperature not stated; RBP-ELISA …
[4] = test system: PPR2.0t1 (synthetic designer (scaffold from Arabidopsis PPR consensus)); assay: RBP-ELISA; conditions: cell lysate, EMSA: 20 mM Tris-HCl pH 8.0, 150 mM NaCl, 0.5% NP-40, 1 mM DTT, 1 mM EDTA, 0.2 pmol biotin-RNA in 10 uL, 6% PAGE in 0.5x TBE, temperature not stated
[5] = test system: PPR2.0t15 (synthetic designer (scaffold from Arabidopsis PPR consensus)); assay: EMSA; conditions: apparent; EMSA: 20 mM Tris-HCl pH 8.0, 150 mM NaCl, 0.5% NP-40, 1 mM DTT, 1 mM EDTA, 0.2 pmol biotin-RNA in 10 uL, 6% PAGE in 0.5x TBE; temperature not stated; RBP-ELISA …
[6] = test system: PPR2.0t15 (synthetic designer (scaffold from Arabidopsis PPR consensus)); assay: RBP-ELISA; conditions: cell lysate, EMSA: 20 mM Tris-HCl pH 8.0, 150 mM NaCl, 0.5% NP-40, 1 mM DTT, 1 mM EDTA, 0.2 pmol biotin-RNA in 10 uL, 6% PAGE in 0.5x TBE, temperature not stated
[7] = test system: PPR2.0t19 (synthetic designer (scaffold from Arabidopsis PPR consensus)); assay: EMSA; conditions: apparent; EMSA: 20 mM Tris-HCl pH 8.0, 150 mM NaCl, 0.5% NP-40, 1 mM DTT, 1 mM EDTA, 0.2 pmol biotin-RNA in 10 uL, 6% PAGE in 0.5x TBE; temperature not stated; RBP-ELISA …
[8] = test system: PPR2.0t19 (synthetic designer (scaffold from Arabidopsis PPR consensus)); assay: RBP-ELISA; conditions: cell lysate, EMSA: 20 mM Tris-HCl pH 8.0, 150 mM NaCl, 0.5% NP-40, 1 mM DTT, 1 mM EDTA, 0.2 pmol biotin-RNA in 10 uL, 6% PAGE in 0.5x TBE, temperature not stated
[9] = test system: PPR2.0t11 (synthetic designer (scaffold from Arabidopsis PPR consensus)); assay: EMSA; conditions: apparent; EMSA: 20 mM Tris-HCl pH 8.0, 150 mM NaCl, 0.5% NP-40, 1 mM DTT, 1 mM EDTA, 0.2 pmol biotin-RNA in 10 uL, 6% PAGE in 0.5x TBE; temperature not stated; RBP-ELISA …
[10] = test system: PPR2.0t11 (synthetic designer (scaffold from Arabidopsis PPR consensus)); assay: RBP-ELISA; conditions: cell lysate, EMSA: 20 mM Tris-HCl pH 8.0, 150 mM NaCl, 0.5% NP-40, 1 mM DTT, 1 mM EDTA, 0.2 pmol biotin-RNA in 10 uL, 6% PAGE in 0.5x TBE, temperature not stated
[11] = test system: PPR2.0t3 (synthetic designer (scaffold from Arabidopsis PPR consensus)); assay: EMSA; conditions: apparent; EMSA: 20 mM Tris-HCl pH 8.0, 150 mM NaCl, 0.5% NP-40, 1 mM DTT, 1 mM EDTA, 0.2 pmol biotin-RNA in 10 uL, 6% PAGE in 0.5x TBE; temperature not stated; RBP-ELISA …
[12] = test system: PPR2.0t3 (synthetic designer (scaffold from Arabidopsis PPR consensus)); assay: RBP-ELISA; conditions: cell lysate, EMSA: 20 mM Tris-HCl pH 8.0, 150 mM NaCl, 0.5% NP-40, 1 mM DTT, 1 mM EDTA, 0.2 pmol biotin-RNA in 10 uL, 6% PAGE in 0.5x TBE, temperature not stated
[13] = test system: PPR2.0t5 (synthetic designer (scaffold from Arabidopsis PPR consensus)); assay: EMSA; conditions: apparent; EMSA: 20 mM Tris-HCl pH 8.0, 150 mM NaCl, 0.5% NP-40, 1 mM DTT, 1 mM EDTA, 0.2 pmol biotin-RNA in 10 uL, 6% PAGE in 0.5x TBE; temperature not stated; RBP-ELISA …
[14] = test system: PPR2.0t5 (synthetic designer (scaffold from Arabidopsis PPR consensus)); assay: RBP-ELISA; conditions: cell lysate, EMSA: 20 mM Tris-HCl pH 8.0, 150 mM NaCl, 0.5% NP-40, 1 mM DTT, 1 mM EDTA, 0.2 pmol biotin-RNA in 10 uL, 6% PAGE in 0.5x TBE, temperature not stated
[15] = test system: PPR2.0t2 (synthetic designer (scaffold from Arabidopsis PPR consensus)); assay: EMSA; conditions: apparent; EMSA: 20 mM Tris-HCl pH 8.0, 150 mM NaCl, 0.5% NP-40, 1 mM DTT, 1 mM EDTA, 0.2 pmol biotin-RNA in 10 uL, 6% PAGE in 0.5x TBE; temperature not stated; RBP-ELISA …
[16] = test system: PPR2.0t2 (synthetic designer (scaffold from Arabidopsis PPR consensus)); assay: RBP-ELISA; conditions: cell lysate, EMSA: 20 mM Tris-HCl pH 8.0, 150 mM NaCl, 0.5% NP-40, 1 mM DTT, 1 mM EDTA, 0.2 pmol biotin-RNA in 10 uL, 6% PAGE in 0.5x TBE, temperature not stated
[17] = test system: PPR2.0t14 (synthetic designer (scaffold from Arabidopsis PPR consensus)); assay: EMSA; conditions: apparent; EMSA: 20 mM Tris-HCl pH 8.0, 150 mM NaCl, 0.5% NP-40, 1 mM DTT, 1 mM EDTA, 0.2 pmol biotin-RNA in 10 uL, 6% PAGE in 0.5x TBE; temperature not stated; RBP-ELISA …
[18] = test system: PPR2.0t14 (synthetic designer (scaffold from Arabidopsis PPR consensus)); assay: RBP-ELISA; conditions: cell lysate, EMSA: 20 mM Tris-HCl pH 8.0, 150 mM NaCl, 0.5% NP-40, 1 mM DTT, 1 mM EDTA, 0.2 pmol biotin-RNA in 10 uL, 6% PAGE in 0.5x TBE, temperature not stated
[19] = test system: PPR2.0t23 (synthetic designer (scaffold from Arabidopsis PPR consensus)); assay: EMSA; conditions: apparent; EMSA: 20 mM Tris-HCl pH 8.0, 150 mM NaCl, 0.5% NP-40, 1 mM DTT, 1 mM EDTA, 0.2 pmol biotin-RNA in 10 uL, 6% PAGE in 0.5x TBE; temperature not stated; RBP-ELISA …
[20] = test system: PPR2.0t23 (synthetic designer (scaffold from Arabidopsis PPR consensus)); assay: RBP-ELISA; conditions: cell lysate, EMSA: 20 mM Tris-HCl pH 8.0, 150 mM NaCl, 0.5% NP-40, 1 mM DTT, 1 mM EDTA, 0.2 pmol biotin-RNA in 10 uL, 6% PAGE in 0.5x TBE, temperature not stated
[21] = test system: PPR2.0t4 (synthetic designer (scaffold from Arabidopsis PPR consensus)); assay: EMSA; conditions: apparent; EMSA: 20 mM Tris-HCl pH 8.0, 150 mM NaCl, 0.5% NP-40, 1 mM DTT, 1 mM EDTA, 0.2 pmol biotin-RNA in 10 uL, 6% PAGE in 0.5x TBE; temperature not stated; RBP-ELISA …
[22] = test system: PPR2.0t4 (synthetic designer (scaffold from Arabidopsis PPR consensus)); assay: RBP-ELISA; conditions: cell lysate, EMSA: 20 mM Tris-HCl pH 8.0, 150 mM NaCl, 0.5% NP-40, 1 mM DTT, 1 mM EDTA, 0.2 pmol biotin-RNA in 10 uL, 6% PAGE in 0.5x TBE, temperature not stated
[23] = test system: PPR2.0t24 (synthetic designer (scaffold from Arabidopsis PPR consensus)); assay: EMSA; conditions: apparent; EMSA: 20 mM Tris-HCl pH 8.0, 150 mM NaCl, 0.5% NP-40, 1 mM DTT, 1 mM EDTA, 0.2 pmol biotin-RNA in 10 uL, 6% PAGE in 0.5x TBE; temperature not stated; RBP-ELISA …

Sequence: GACAUGCCACUAUUUAAGUUAUCAAGACUG [Probe_t8]
- Kd [1]: 1.95 nM
- binding signal [2]: 4.7e+07 luminescence

Sequence: GACAUGCGAAUGAACUCUUCCGGGAGACUG [Probe_t1]
- Kd [3]: 3.45 nM
- binding signal [4]: 6.64e+07 luminescence

Sequence: GACAUGCAAGGAUAAUAUCAAACACGACUG [Probe_t15]
- Kd [5]: 41 nM
- binding signal [6]: 2.84e+07 luminescence

Sequence: GACAUGCGUGAUGUGGAGUUAAGGCGACUG [Probe_t19]
- Kd [7]: 173 nM
- binding signal [8]: 1.19e+07 luminescence

Sequence: GACAUGCGACUCAGGAAUCGGCUCUGACUG [Probe_t11]
- Kd [9]: 63.3 nM
- binding signal [10]: 3.78e+07 luminescence

Sequence: GACAUGCCUGAGUCAUAACCAGCCUGACUG [Probe_t3]
- Kd [11]: 59.2 nM
- binding signal [12]: 3.35e+07 luminescence

Sequence: GACAUGCCAACAUCAGUCUGAUAAGGACUG [Probe_t5]
- Kd [13]: 167 nM
- binding signal [14]: 1.67e+07 luminescence

Sequence: GACAUGCGAGAGGAAGCCUGAGAGUGACUG [Probe_t2]
- Kd [15]: 4 nM
- binding signal [16]: 5.68e+07 luminescence

Sequence: GACAUGCGCAGAUAAUUAAUAAGAAGACUG [Probe_t14]
- Kd [17]: 197 nM
- binding signal [18]: 1.33e+07 luminescence

Sequence: GACAUGCCCCAUAGAUGUGACAAGCGACUG [Probe_t23]
- Kd [19]: 10.4 nM
- binding signal [20]: 3.27e+07 luminescence

Sequence: GACAUGCGGCAAAAAGAUCACUGUAGACUG [Probe_t4]
- Kd [21]: 2.57 nM
- binding signal [22]: 5.98e+07 luminescence

Sequence: GACAUGCGGCGGGGCACUGUGCGUGGACUG [Probe_t24]
- Kd [23]: 11 nM
